# From patent US5756684, “Cloning and expression of PUR protein” (Mount Sinai School of Medicine of the City of New York)
# Legend:
# GST-Pur-alpha = biological target: T1, GST-Pur-alpha (Homo sapiens, UniProt Q00577 SEQ:1-322); assay: EMSA; 7.5 pmol; Tat at 1:1 enhances binding nearly 10-fold; conditions: tags: N-terminal GST; label: 32P end
# T1 sequence: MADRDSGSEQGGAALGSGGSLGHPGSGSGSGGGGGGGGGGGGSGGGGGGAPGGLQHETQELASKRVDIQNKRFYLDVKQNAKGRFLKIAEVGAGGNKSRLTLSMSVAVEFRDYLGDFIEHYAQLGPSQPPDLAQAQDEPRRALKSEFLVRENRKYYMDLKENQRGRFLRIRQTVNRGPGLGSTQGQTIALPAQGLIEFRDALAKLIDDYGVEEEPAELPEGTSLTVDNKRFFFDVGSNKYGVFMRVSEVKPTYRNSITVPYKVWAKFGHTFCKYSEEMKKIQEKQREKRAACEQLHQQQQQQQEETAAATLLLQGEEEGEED
# Experimental: FIG. 21A. Specificity of binding of Purα to the JCV upTAR element. The different oligonucleotide probes used for the indicated reactions are: JCV+, the purine-rich single strand of the upTAR element; JCV ds, the double-stranded upTAR element, only the pyrimidine-rich strand of which is labeled; JCV−, the pyrimidine-rich strand of the upTAR element.
# 8.1.2. Binding of PURα to the JVC upTAR PUR Element in the Presence or Absence of Tat All gel shifts were performed as described in Section 6.1.2. using ^32P end-labeled 24-mer oligonucleotide probe representing a dimer of the upTAR element. The purine-rich strand of this oligonucleotide is: 5'-[…]-3' SEQ ID NO:51. For both panels A and B, all Tat, Purα and Purα deletion mutant proteins were employed GST fusion proteins prepared by purification on glutathione agarose columns as described for FIG. 20 and eluted with glutathione. In both panels for lanes labeled +, 7.5 pmoles of each indicated protein were used. Specificity of binding of Purα to the JCV upTAR element. The different oligonucleotide probes used for the indicated reactions are: JCV+, the purine-rich single strand of the upTAR element; JCV ds, the double-stranded upTAR element, only the pyrimidine-rich strand of which is labeled; JCV−, the pyrimidine-rich strand of the upTAR element. Effect of Tat upon biding of a series of Purα deletion mutants to the JCV upTAR element. […]
# GST-Tat = GST-Tat (HIV-1, UniProt P04608 P04608:1-86); assay: EMSA; Tat stated not to bind the upTAR element itself; conditions: tags: GST; label: 32P end
binder,measurement,setting,value
GGAGGCGGAGGCGGAGGCGGAGGC (ssDNA) [JCV+ (upTAR purine-rich strand dimer)],binding result,GST-Pur-alpha,binds
same,binding result,GST-Tat,no binding
